{
  "source": "the supplement of paper PMC5998384",
  "key": {"[1]": {"tested_on": "HeLa Kyoto", "test": "melting temperature (median over replicates), in situ; higher = more thermally stable"}, "[2]": {"tested_on": "HeLa Kyoto", "test": "solubility in G1/S (NP-40 vs SDS abundance) (log2 ratio); higher = more soluble", "settings": "cell cycle stage: G1/S"}, "[3]": {"tested_on": "HeLa Kyoto", "test": "solubility change mitosis vs G1/S (difference of NP-40 vs SDS log2 ratios) (log2 ratio difference); higher = more soluble in mitosis"}, "[4]": {"tested_on": "HeLa Kyoto", "test": "thermal stability score vs G1/S (z-score of summed log2 fold changes over temperatures); higher = more thermally stable than in G1/S"}, "[5]": {"settings": "cell cycle stage: early G1 (4.5 h after nocodazole release)"}},
  "data": [
    {"sequence": "MSWFVDLAGKAEDLLNRVDQGAATALSRKDNASNIYSKNTDYTELHQQNTDLIYQTGPKSTYISSAADNIRNQKATILAGTANVKVGSRTPVEASHPVENASVPRPSSHFVRRKKSEPDDELLFDFLNSSQKEPTGRVEIRKEKGKTPVFQSSQTSSVSSVNPSVTTIKTIEENSFGSQTHEAASNSDSSHEGQEESSKENVSSNAACPDHTPTPNDDGKSHELSNLRLENQLLRNEVQSLNQEMASLLQRSKETQEELNKARARVEKWNADHSKSDRMTRGLRAQVDDLTEAVAAKDSQLAVLKVRLQEADQLLSTRTEALEALQSEKSRIMQDQSEGNSLQNQALQTFQERLHEADATLKREQESYKQMQSEFAARLNKVEMERQNLAEAITLAERKYSDEKKRVDELQQQVKLYKLNLESSKQELIDYKQKATRILQSKEKLINSLKEGSGFEGLDSSTASSMELEELRHEKEMQREEIQKLMGQIHQLRSELQDMEAQQVNEAESAREQLQDLHDQIAGQKASKQELETELERLKQEFHYIEEDLYRTKNTLQSRIKDRDEEIQKLRNQLTNKTLSNSSQSELENRLHQLTETLIQKQTMLESLSTEKNSLVFQLERLEQQMNSASGSSSNGSSINMSGIDNGEGTRLRNVPVLFNDTETNLAGMYGKVRKAASSIDQFSIRLGIFLRRYPIARVFVIIYMALLHLWVMIVLLTYTPEMHHDQPYGK [GOLGA5]", "values": [
      {"measurement": "melting temperature", "setting": "[1]; cell cycle stage: G1/S", "value": 52.7, "unit": "°C"},
      {"measurement": "melting temperature", "setting": "[1]; cell cycle stage: mitosis", "value": 53, "unit": "°C"},
      {"measurement": "solubility in G1/S (log2)", "setting": "[2]", "value": 0.284},
      {"measurement": "solubility change mitosis (log2)", "setting": "[3]", "value": -0.148},
      {"measurement": "thermal stability score", "setting": "[4]; [5]", "value": 1.32},
      {"measurement": "thermal stability score", "setting": "[4]; cell cycle stage: mitosis", "value": 2.34}
    ]},
    {"sequence": "MSWLFGINKGPKGEGAGPPPPLPPAQPGAEGGGDRGLGDRPAPKDKWSNFDPTGLERAAKAARELEHSRYAKDALNLAQMQEQTLQLEQQSKLKEYEAAVEQLKSEQIRAQAEERRKTLSEETRQHQARAQYQDKLARQRYEDQLKQQQLLNEENLRKQEESVQKQEAMRRATVEREMELRHKNEMLRVEAEARARAKAERENADIIREQIRLKAAEHRQTVLESIRTAGTLFGEGFRAFVTDWDKVTATVAGLTLLAVGVYSAKNATLVAGRFIEARLGKPSLVRETSRITVLEALRHPIQVSRRLLSRPQDALEGVVLSPSLEARVRDIAIATRNTKKNRSLYRNILMYGPPGTGKTLFAKKLALHSGMDYAIMTGGDVAPMGREGVTAMHKLFDWANTSRRGLLLFVDEADAFLRKRATEKISEDLRATLNAFLYRTGQHSNKFMLVLASNQPEQFDWAINDRINEMVHFDLPGQEERERLVRMYFDKYVLKPATEGKQRLKLAQFDYGRKCSEVARLTEGMSGREIAQLAVSWQATAYASEDGVLTEAMMDTRVQDAVQQHQQKMCWLKAEGPGRGDEPSPS [ATAD3A]", "values": [
      {"measurement": "melting temperature", "setting": "[1]; cell cycle stage: G1/S", "value": 50.5, "unit": "°C"},
      {"measurement": "melting temperature", "setting": "[1]; cell cycle stage: mitosis", "value": 51, "unit": "°C"},
      {"measurement": "solubility in G1/S (log2)", "setting": "[2]", "value": -0.0262},
      {"measurement": "solubility change mitosis (log2)", "setting": "[3]", "value": -0.0269},
      {"measurement": "thermal stability score", "setting": "[4]; [5]", "value": -0.608},
      {"measurement": "thermal stability score", "setting": "[4]; cell cycle stage: mitosis", "value": 0.271}
    ]},
    {"sequence": "MSWVQATLLARGLCRAWGGTCGAALTGTSISQVPRRLPRGLHCSAAAHSSEQSLVPSPPEPRQRPTKALVPFEDLFGQAPGGERDKASFLQTVQKFAEHSVRKRGHIDFIYLALRKMREYGVERDLAVYNQLLNIFPKEVFRPRNIIQRIFVHYPRQQECGIAVLEQMENHGVMPNKETEFLLIQIFGRKSYPMLKLVRLKLWFPRFMNVNPFPVPRDLPQDPVELAMFGLRHMEPDLSARVTIYQVPLPKDSTGAADPPQPHIVGIQSPDQQAALARHNPARPVFVEGPFSLWLRNKCVYYHILRADLLPPEEREVEETPEEWNLYYPMQLDLEYVRSGWDNYEFDINEVEEGPVFAMCMAGAHDQATMAKWIQGLQETNPTLAQIPVVFRLAGSTRELQTSSAGLEEPPLPEDHQEEDDNLQRQQQGQS [ECSIT]", "values": [
      {"measurement": "melting temperature", "setting": "[1]; cell cycle stage: G1/S", "value": 54.4, "unit": "°C"},
      {"measurement": "melting temperature", "setting": "[1]; cell cycle stage: mitosis", "value": 56.1, "unit": "°C"},
      {"measurement": "solubility in G1/S (log2)", "setting": "[2]", "value": -0.0136},
      {"measurement": "solubility change mitosis (log2)", "setting": "[3]", "value": -0.1},
      {"measurement": "thermal stability score", "setting": "[4]; [5]", "value": 2.4},
      {"measurement": "thermal stability score", "setting": "[4]; cell cycle stage: mitosis", "value": 3.63}
    ]},
    {"sequence": "MTCYRGFLLGSCCRVAGGRAAALRGPGAGGPAARPRLGGDGGGRRHLGQGQPRELAGCGSRADGGFRPSRVVVVAKTTRYEFEQQRYRYAELSEEDLKQLLALKGSSYSGLLERHHIHTKNVEHIIDSLRNEGIEVRLVKRREYDEETVRWADAVIAAGGDGTMLLAASKVLDRLKPVIGVNTDPERSEGHLCLPVRYTHSFPEALQKFYRGEFRWLWRQRIRLYLEGTGINPVPVDLHEQQLSLNQHNRALNIERAHDERSEASGPQLLPVRALNEVFIGESLSSRASYYEISVDDGPWEKQKSSGLNLCTGTGSKAWSFNINRVATQAVEDVLNIAKRQGNLSLPLNRELVEKVTNEYNESLLYSPEEPKILFSIREPIANRVFSSSRQRCFSSKVCVRSRCWDACMVVDGGTSFEFNDGAIASMMINKEDELRTVLLEQ [NADK2]", "values": [
      {"measurement": "melting temperature", "setting": "[1]; cell cycle stage: G1/S", "value": 55.3, "unit": "°C"},
      {"measurement": "melting temperature", "setting": "[1]; cell cycle stage: mitosis", "value": 55.5, "unit": "°C"},
      {"measurement": "solubility in G1/S (log2)", "setting": "[2]", "value": 0.0487},
      {"measurement": "solubility change mitosis (log2)", "setting": "[3]", "value": -0.121},
      {"measurement": "thermal stability score", "setting": "[4]; [5]", "value": -0.37},
      {"measurement": "thermal stability score", "setting": "[4]; cell cycle stage: mitosis", "value": 2.77}
    ]}
  ]
}
